Measured values published in US20180244758A1 (MAPP BIOPHARMACEUTICAL, published 2018).
Substitutions are numbered along the chain they refer to.

B1: mAb PE-16 (antibody, V domains shown)
VH: QVQLVQSGAEVTKPGASVKVSCKASGYTFTTYYMHWVRQAPGQGLEWVGIINPSGGITRYAQKFQGRVTLTRDTSTTTVYMELSSLRSEDTAVYYCARDRYPVLFATDYGMDVWGQGTTVTVSS
VL: DIVMTQSPATLSLSPGERATLSCRASQSVSGYLAWYQQKPGQAPRLLIYDASNRATGIPARFSGSGSGTDFTLTISSLEPEDFAVYYCQQRSIWPPGVTFGGGTKVEIK
B2: mAb PE-05 (antibody, V domains shown)
VH: QVQLQESGGGLVKPGRSLRLSCTASGFTFGDYAMSWFRQAPGKGLEWVGFLRSKAYGGTAEYAASVKGRFTMSRDDSKSIAYLQMNSLKTEDTAVYFCTRDGFRGSSWGYSYYGMDVWGQGTTVTVSS
VL: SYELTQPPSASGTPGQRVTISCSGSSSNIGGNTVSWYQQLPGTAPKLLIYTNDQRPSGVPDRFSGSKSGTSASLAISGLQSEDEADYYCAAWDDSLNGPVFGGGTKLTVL
B3: mAb PE-87 (antibody, V domains shown)
VH: QVQLVQSGVTLVQPGGSLRVSCAASGFTFSSYAMSWVRQAPGKGLEWVSAISGLGGSTYYADSVKGRFTISRDNSKNTLYLQMNSLRAEDTAVYYCAKDHRVWAAGYHFDYWGQGALVTVSS
VL: DIVLTQSPSTLSASVGDRVTITCRASQSISSWLAWYQQKPGEAPKLLISDASSLESGVPSRFSGSGSGTEFTLTISSLQPDDFATYYCQQYYSSPTFGGGTKVEIK
B4: mAb PE-24 (antibody, V domains shown)
VH: EVQLVESGGGLVQPGGSLRLSCAASGFTFSSYAMSWVRQAPGKGLEWVSEISGLGGSTYYADSAKGRFTISRDNSKSTLYLQMNSLRAEDTAVYYCAKDHRVWAPGYYFDHWGQGTLVTVSS
VL: B3 VL with E42K, S49Y, Y87F, Y92N, S93R
B5: mAb PE-47 (antibody, V domains shown)
VH: EVQLVESGGGLVKPGGSLRLSCAASGFTFSNAWMSWVRQAPGEGLEWVGRIKSKTDGGTIDYAAPVKGRFTISRDDSKNTVYLQMTSLKTEDTAVYYCTTYTEDMQYFDWLLRGGETFDYWGQGTLVTVSS
VL: DIQMTQSPSSLSASVGDRVTITCRASQYISTYLNWYQQKPGKAPKLLIYAAYNLQSGVPSRFSGSGSGTDFTLTISSLQPEDFATYYCQQSYSTPGRYTFGQGTKVEIK

The binders below were run against BDBV GP on rVSV particles (Bundibugyo virus (BDBV)) (assay: cell-based or functional assay).

In order of rising “Neutralization (VSV-GP IC50, nM)” value:
1. B5  0.4 nM
2. B3  0.5 nM
3. B1  0.6 nM
4. B4  0.8 nM
5. B2  3.7 nM

These binders were tested against GP of authentic (wild-type) BDBV (Bundibugyo virus (BDBV)) (assay: cell-based or functional assay).

In order of rising “Microneut. WT IC50” value:
1. B1  0.2 nM
2. B4  0.3 nM
3. B3  0.4 nM
4. B5  0.5 nM

These binders were tested against T1, RESTV GP on rVSV particles (Reston virus (RESTV), UniProt Q66799 34-677) (assay: cell-based or functional assay).
T1 sequence: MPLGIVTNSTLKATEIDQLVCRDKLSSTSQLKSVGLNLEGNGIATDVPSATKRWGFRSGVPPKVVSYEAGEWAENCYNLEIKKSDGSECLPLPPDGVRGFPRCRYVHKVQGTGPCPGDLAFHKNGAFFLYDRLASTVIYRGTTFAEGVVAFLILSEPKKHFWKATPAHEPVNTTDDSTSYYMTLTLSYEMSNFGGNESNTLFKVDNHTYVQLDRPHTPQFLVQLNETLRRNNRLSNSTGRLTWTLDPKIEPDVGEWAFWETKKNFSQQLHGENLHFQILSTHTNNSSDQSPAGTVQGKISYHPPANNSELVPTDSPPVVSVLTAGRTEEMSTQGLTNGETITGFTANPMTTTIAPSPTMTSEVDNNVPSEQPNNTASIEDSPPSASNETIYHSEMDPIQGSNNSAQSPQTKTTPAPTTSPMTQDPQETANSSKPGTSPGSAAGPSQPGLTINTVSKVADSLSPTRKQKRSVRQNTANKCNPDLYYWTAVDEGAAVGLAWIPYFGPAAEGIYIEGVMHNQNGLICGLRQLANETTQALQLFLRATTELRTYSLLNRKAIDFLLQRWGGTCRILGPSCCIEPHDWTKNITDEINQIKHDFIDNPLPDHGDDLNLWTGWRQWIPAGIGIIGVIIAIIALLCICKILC

In order of rising “Neutralization (VSV-GP IC50, nM)” value:
1. B3  0.2 nM
2. B4  0.2 nM
3. B2  22 nM

What follows are binders tested against T2, GP of authentic (wild-type) SUDV (Sudan virus (SUDV), UniProt Q66814 33-676) (assay: cell-based or functional assay).
T2 sequence: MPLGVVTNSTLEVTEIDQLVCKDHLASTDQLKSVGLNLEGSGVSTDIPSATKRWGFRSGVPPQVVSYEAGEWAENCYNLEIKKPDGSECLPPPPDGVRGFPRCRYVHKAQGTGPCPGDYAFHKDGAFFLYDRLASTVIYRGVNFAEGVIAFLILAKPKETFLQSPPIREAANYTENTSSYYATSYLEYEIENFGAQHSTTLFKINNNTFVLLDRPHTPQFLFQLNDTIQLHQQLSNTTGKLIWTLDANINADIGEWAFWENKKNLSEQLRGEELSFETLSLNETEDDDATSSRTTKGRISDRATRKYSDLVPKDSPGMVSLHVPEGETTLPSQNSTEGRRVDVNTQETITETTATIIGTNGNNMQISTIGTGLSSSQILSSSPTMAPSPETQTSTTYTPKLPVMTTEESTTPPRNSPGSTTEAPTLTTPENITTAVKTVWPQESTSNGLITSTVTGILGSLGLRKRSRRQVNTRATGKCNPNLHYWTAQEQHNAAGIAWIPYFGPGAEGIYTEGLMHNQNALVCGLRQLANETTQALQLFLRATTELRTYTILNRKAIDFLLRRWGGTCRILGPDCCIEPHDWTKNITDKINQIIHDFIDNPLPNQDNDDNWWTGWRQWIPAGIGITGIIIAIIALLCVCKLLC

B3 and B4 are within 1.5-fold of each other in “Microneut. WT IC50” value: 0.3 nM for the first, 0.4 nM for the second.

In the case of B5, the “Microneut. WT IC50” value is reported as less than 0.1 nM.

These binders were tested against T3, TAFV GP on VSV pseudotype particles (Tai Forest virus (TAFV), UniProt Q66810 33-676) (assay: cell-based or functional assay).
T3 sequence: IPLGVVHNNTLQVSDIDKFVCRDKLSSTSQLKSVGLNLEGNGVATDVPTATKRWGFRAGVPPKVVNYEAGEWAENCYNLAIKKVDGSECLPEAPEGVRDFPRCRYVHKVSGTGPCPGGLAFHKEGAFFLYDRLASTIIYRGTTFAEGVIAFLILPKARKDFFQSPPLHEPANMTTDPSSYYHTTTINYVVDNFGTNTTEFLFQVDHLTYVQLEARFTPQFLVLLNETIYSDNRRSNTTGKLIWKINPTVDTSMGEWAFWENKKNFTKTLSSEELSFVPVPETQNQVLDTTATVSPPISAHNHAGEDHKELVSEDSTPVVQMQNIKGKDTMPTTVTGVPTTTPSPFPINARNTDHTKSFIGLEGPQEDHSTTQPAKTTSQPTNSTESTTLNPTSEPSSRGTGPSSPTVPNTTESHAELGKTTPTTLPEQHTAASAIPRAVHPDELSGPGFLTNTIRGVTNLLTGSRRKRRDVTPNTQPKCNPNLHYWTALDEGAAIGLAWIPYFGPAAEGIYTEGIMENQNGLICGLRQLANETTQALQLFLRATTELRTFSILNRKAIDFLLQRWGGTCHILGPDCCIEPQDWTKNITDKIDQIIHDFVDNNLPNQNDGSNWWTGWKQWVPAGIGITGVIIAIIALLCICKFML

In order of rising “Neutralization (VSV-GP IC50, nM)” value:
1. B2  0.8 nM
2. B3  1 nM
3. B4  1.5 nM
4. B1  4.8 nM
5. B5  6.1 nM

The binders below were run against T4, GP of authentic (wild-type) EBOV (Ebola virus (EBOV), UniProt P87666 33-676) (assay: cell-based or functional assay).
T4 sequence: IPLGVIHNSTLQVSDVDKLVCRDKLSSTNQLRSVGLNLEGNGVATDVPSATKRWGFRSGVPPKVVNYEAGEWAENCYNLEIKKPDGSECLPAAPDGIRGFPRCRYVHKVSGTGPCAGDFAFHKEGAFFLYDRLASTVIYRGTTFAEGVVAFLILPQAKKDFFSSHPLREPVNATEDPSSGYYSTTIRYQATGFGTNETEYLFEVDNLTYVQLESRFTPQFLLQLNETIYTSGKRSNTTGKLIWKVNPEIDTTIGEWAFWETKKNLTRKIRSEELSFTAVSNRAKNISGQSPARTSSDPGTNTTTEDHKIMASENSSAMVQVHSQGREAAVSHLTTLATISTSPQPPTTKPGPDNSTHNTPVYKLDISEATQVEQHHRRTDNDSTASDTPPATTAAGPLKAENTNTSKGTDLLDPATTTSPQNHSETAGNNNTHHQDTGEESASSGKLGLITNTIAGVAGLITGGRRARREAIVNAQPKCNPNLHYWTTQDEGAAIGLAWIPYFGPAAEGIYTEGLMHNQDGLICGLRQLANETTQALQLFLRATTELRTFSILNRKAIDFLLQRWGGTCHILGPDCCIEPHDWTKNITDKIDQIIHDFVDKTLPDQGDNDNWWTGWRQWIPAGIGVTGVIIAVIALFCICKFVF

In order of falling “Microneut. WT IC50” value:
1. B2  7.7 nM
2. B4  1 nM
3. B5  0.7 nM
4. B3  0.3 nM
5. B1  0.05 nM

Going from B1 to B2, the “Neut. WT EBOV PRNT50” value rises from less than 0.02 nM to 4 nM.

Going from B3 to B4, the “Neut. WT EBOV PRNT50” value rises from less than 0.05 nM to 0.4 nM.
